The data set in a line: yeast display, Sf9 membrane polyspecificity reagent, FACS + sequencing; frameworks hold sequencing errors. The method in brief:
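A nanobody's polyreactivity label depends on the gate it was sorted from. Yeast display cells were stained with 10% biotinylated, detergent-solubilized Sf9 membrane reagent for 1 hour at 4 °C, enriched on streptavidin microbeads and sorted by FACS. The low and high (top ~1%) gates were set on anti-HA fluorescence for expression and streptavidin fluorescence for reagent binding.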
“QVQLVESGGGLVQAGGSLRLSCAASGSIFRLNTMGWYRQAPGKEMEFVAAISKGGTSTYYADSVKARFTISRDNAKNTVYLQMNSLKPEDTAVYYCAADYYSLYEATTDFDYWGQGTQVTVSS”: the “polyreactivity (PSR sort gate)” value was “high polyreactivity”.

As to “QVQLVESGGGLVQAGGSLRLSCAASGSIFRLYAMGWYRQAPGKEREFVARIRWRGGCTNYADSVKGRITISRDNAKNTVYLQMNTLKPEDTAVYYCAVKGAGGPKYDYWGHGTQVTVSS”, the “polyreactivity (PSR sort gate)” value is recorded as “high polyreactivity”.

With “QVQLVESGGGLVQAGGSLRLSCAASGSIFRLYAMGWYRQAPGKERELVAAITWRSGSTYYADSVKGRFTISRDNAKNTVYLQMNSLKPEDTAVYYCAADSLYRLYNYWGQGTQVTVSS”, the “polyreactivity (PSR sort gate)” value was “high polyreactivity”.

As to “QVQLVESGGGLVQAGGSLRLSCAASGSIFRPYAMGWYRQAPGKERELVAAISYRGGSTYYADSVKGRFTISRDYAKNTVYLLMNRLKPEDTAVYYCAADSREEGDYWGQGTQVTVSS”, the “polyreactivity (PSR sort gate)” value is listed as “low polyreactivity”.

Regarding “QVQLVESGGGLVQAGGSLRLSCAASGSIFRPYTMGWYRPAPGKERELVAGITSGGGTYYADSVKGRFTISRDNAKNTVYLQMNSLKPEDTAVYYCAADNWKTRSLVDYWGQGTEVTVSS”, the “polyreactivity (PSR sort gate)” value is given as “high polyreactivity”.

Turning to “QVQLVESGGGLVQAGGSLRLSCAASGSIFRRNAMGWYRQAPGKERELVAGIRGSGGSTYYADSVKGRFTISRDNAKNTVYLQMNSLKPEDTAVYYSAARRSYYHGSYDYWGQGTQVTVSS”, the “polyreactivity (PSR sort gate)” value is listed as “high polyreactivity”.

As to “QVQLVESGGGLVQAGGSLRLSCAASGSIFRRYAKGWYRQAPGKERELVAAITNRGGTTYYADSVKGRFTISRDNAKNSVYLQMNSLKPEDTAVYYCNAYYRTKGGFRFGYWGQVTQVTVSS”, the “polyreactivity (PSR sort gate)” value is on record as “high polyreactivity”.

For “QVQLVESGGGLVQAGGSLRLSCAASGSIFRRYAMGWYRQAPGKERELVAAISIGGGSTYYADSVKGRFTISRDNAKITVYLQMNSLKPEDTAVYYCNAYWKDDFEDGPGRRGMDYWGQGTQVTVSS”, the “polyreactivity (PSR sort gate)” value is “low polyreactivity”.

Turning to “QVQLVESGGGLVQAGGSLRLSCAASGSIFRRYAMGWYRQAPGKERELVAAISWRGDSTYYADSVKGRFTISRDNAKNTVYLQMNSLKPEDTAVYYCNSLIGANPLCYAARYDYWGQGTQVTVSS”, the “polyreactivity (PSR sort gate)” value is “low polyreactivity”.

For the sequence “QVQLVESGGGLVQAGGSLRLSCAASGSIFRRYTMGWYRQAPGKEREFVAVISRDGGSTYYADSVKGRFTISRDNAKNTVYLQMNSLKPEDTAVYYCAARLVRRYDYDYWGQGTQVTVSS”, the “polyreactivity (PSR sort gate)” value is given as “high polyreactivity”.

On to “QVQLVESGGGLVQAGGSLRLSCAASGSIFRSNDMGWYRKAPGKERELVARITSSVGSTYYADSVKGRFTISRDNAKNTVYLQMNSLKPEVTAVYYCAKRYYHYPYGYRDYDYWGQGTQVTVSS”, for which the “polyreactivity (PSR sort gate)” value is recorded as “low polyreactivity”.

Take “QVQLVESGGGLVQAGGSLRLSCAASGSIFRSYAMGWYRQAPGKERELVAAISSSGGRTYYADSVKGRFTISRDNAKNTVYLQMNSLKPEDTAVYYCAAYGGGGYKYDYWGQGTQVTVSS”: the “polyreactivity (PSR sort gate)” value is on record as “low polyreactivity”.

Consider “QVQLVESGGGLVQAGGSLRLSCAASGSIFRSYAMGWYRQAPGKERELVAGITRGGSTNYADSVKGRFTISRYNAKNTVYLQMNSLKPEDTAVYYCNADTVSLGHSLDDGDYWGQGTQVTVSS”, for which the “polyreactivity (PSR sort gate)” value is “low polyreactivity”.

With “QVQLVESGGGLVQAGGSLRLSCAASGSIFRTNAMGWYRQAPGKERELVAAISQRGGSTYYADSVKGRFTISRDNAKNTVYLQMNSLKPEDTAVYYCAAPYTQKRGYDYWGQGTLVTVSS”, the “polyreactivity (PSR sort gate)” value is listed as “high polyreactivity”.

In the case of “QVQLVESGGGLVQAGGSLRLSCAASGSIFRTNAMGWYRQAPGKERELVASISRRGGSTYYADSVKGRFTISRDNAKNTVYLQMNSLKPEDTAVYYCAAVGYYSNTLHPWWDMYYWGQGTQVTVSS”, the “polyreactivity (PSR sort gate)” value is “high polyreactivity”.

On to “QVQLVESGGGLVQAGGSLRLSCAASGSIFRTNTMGWYRQAPGKERELVARINRGGRTYYADSVKGRFTISRDNAKNTVYLQMNSLKPEDTAVYYCAAAPFFPHWYGYDYWGQGTHVTVSS”, for which the “polyreactivity (PSR sort gate)” value is reported as “high polyreactivity”.

“QVQLVESGGGLVQAGGSLRLSCAASGSIFRTYVMGWYRQAPGKERELVAAITASGGRTYYADSVKGRFTISRDNAKNSVYLQMNSLKPEDTAVYYCAAVSRGRYADSFDHWGQGTQVTVSS”: the “polyreactivity (PSR sort gate)” value is reported as “high polyreactivity”.

“QVQLVESGGGLVQAGGSLRLSCAASGSIFRVNAMGWYRQAPGKERELVAAITSGGTTTYYADSVKGRFTISLDNAKNTVYLQMNSLKPEDTAVYYCSKYPYPIYHTDGDDWGQGTQVTVSS”: the “polyreactivity (PSR sort gate)” value is listed as “low polyreactivity”.

With “QVQLVESGGGLVQAGGSLRLSCAASGSIFRVYAMGWYRQAPGKERELVARISRTGVSTYYADSVKGRFTISRDNAKNTVYLQMNSLKPEDTAVYYCAVLIPYSSRSYRSTWYGYWGQGTQVTVSS”, the “polyreactivity (PSR sort gate)” value is given as “high polyreactivity”.

As for “QVQLVESGGGLVQAGGSLRLSCAASGSIFRVYAMGWYRRAPGKERELVATITWNGGSTYYADSVKGRFTISRDNAKNTVYLQMNSLKPEDTAVYYCAKPTSWRRVLPMDYWGQGTQVTVSS”, the “polyreactivity (PSR sort gate)” value was “low polyreactivity”.

Turning to “QVQLVESGGGLVQAGGSLRLSCAASGSIFRWNAMGWNRQEPGKERELVAVINSSGGSTYYADSVKGRFTISRDNAKNTVYLQMNSLKPEDTAVYYCAKGYDTTLTYNYWGQGTQVTVSS”, the “polyreactivity (PSR sort gate)” value is reported as “low polyreactivity”.

On to “QVQLVESGGGLVQAGGSLRLSCAASGSIFRWNAMGWYRQAPGKERELVAAITYSGGTTYYADSVKGRFTISRDNAKNTVYLQMNSLKPEDTAVYYCAATYYDYYRLYHLGYWGQGTQVTVSS”, for which the “polyreactivity (PSR sort gate)” value was “high polyreactivity”.

Take “QVQLVESGGGLVQAGGSLRLSCAASGSIFRWNSMGGYRQAPGKERELVASITSGGSTYYADSVKGRFTISRDNAKNTVYLQMNSLKPEDTAVYYCAAARYPGRKFDYWGQGTQVTVSS”: the “polyreactivity (PSR sort gate)” value was “high polyreactivity”.

On to “QVQLVESGGGLVQAGGSLRLSCAASGSIFRWYAMGWYRQAPGKERELVAAITWSASRTYYADSVKGRFTISRDNAKNTVYLQMNSLKPEDTAVYYCAADHDGPYAGYDSWGQGTQVTVSS”, for which the “polyreactivity (PSR sort gate)” value was “low polyreactivity”.

For “QVQLVESGGGLVQAGGSLRLSCAASGSIFRYNTMGRYRQAPGKERELVATITRRGGSTYYADSVKGRFTISRDNAKNTVYLQMNSLKPEDTAVYYCNADNFGGPYNYWGQGTQVTVSS”, the “polyreactivity (PSR sort gate)” value is recorded as “low polyreactivity”.

On to “QVQLVESGGGLVQAGGSLRLSCAASGSIFRYYAMGWYRQAPGKERELVAAIRVSTGSTSYADSVKGRFTISRDNAKKSVYLQMNSLIPAVTAVYYCNARSRLVIAYRQHNYWGQGTQVTVSS”, for which the “polyreactivity (PSR sort gate)” value was “high polyreactivity”.

Turning to “QVQLVESGGGLVQAGGSLRLSCAASGSIFRYYAMGWYRQAPGKERELVAAISRRGSSTYYADSVKGRFTISRDNAKNTVYLQMNSLNPEDTAVYYCAAGDFKQYDYWGQGTQVTVSS”, the “polyreactivity (PSR sort gate)” value is recorded as “high polyreactivity”.

On to “QVQLVESGGGLVQAGGSLRLSCAASGSIFRYYAMGWYRQAPGKERELVAAISSNGGSTYYADSVKGRFTISRDNAKNTVYLQMNSLKPEDTAVYYCNAVKVGPYYFRSDYWGQGTQVTVSS”, for which the “polyreactivity (PSR sort gate)” value is “high polyreactivity”.

With “QVQLVESGGGLVQAGGSLRLSCAASGSIFRYYAMGWYRQAPGKERELVAAITSSAGSTYYADSVKGRFTISRDNAKNTVYLQMNSLKPEDTAVYYCNALVQGKEYYWGQGTQVTVSS”, the “polyreactivity (PSR sort gate)” value is recorded as “high polyreactivity”.

Consider “QVQLVESGGGLVQAGGSLRLSCAASGSIFRYYAMGWYRQAPGKERELVASISWSGTSTNYADSVKGRFTISRDNAKNTVYLQMNSLKPEDTAVYYCNKVRWGRYYTRYDYWGQGTQVTVSS”, for which the “polyreactivity (PSR sort gate)” value is given as “high polyreactivity”.

Turning to “QVQLVESGGGLVQAGGSLRLSCAASGSIFRYYAMGWYRQAPGKERELVASITRRGGSTYYADSVKGRFTISRDNAKNTVYLQMNSLKPEDTAFYYCAAHKTYVREYYWGQGTQVTVSS”, the “polyreactivity (PSR sort gate)” value was “high polyreactivity”.

In the case of “QVQLVESGGGLVQAGGSLRLSCAASGSIFRYYAMGWYRQAPGKERELVATISWSGGGTYYADSVKGRFTISRDTAKNTVYLLMNSLKPDVTGVYYCAAVGTVPRKQRYHSYIDYDYWGQGTQVTVSS”, the “polyreactivity (PSR sort gate)” value is reported as “low polyreactivity”.

Turning to “QVQLVESGGGLVQAGGSLRLSCAASGSIFRYYAMGWYRQAPGKERELVAVITGTGGSTYYADSVKGRFTISRDNAKNTVYLQMNSLKPEDTAVYYCNVYRPWGWFDYWGQGTQVTVSS”, the “polyreactivity (PSR sort gate)” value is “high polyreactivity”.

Consider “QVQLVESGGGLVQAGGSLRLSCAASGSIFRYYAMGWYRQAPRKERELVAAISSNGGSTSYADSVKGRFTISRDNAKNTVYLQMNSLIPEYTAVYYCNTQFRYPQKYDYWGQGTQVTVSS”, for which the “polyreactivity (PSR sort gate)” value is listed as “high polyreactivity”.

With “QVQLVESGGGLVQAGGSLRLSCAASGSIFRYYDMGWYRQAPGKERELVAAISTSGVRTNYADSVKGRFTISRDNAKNTVYLQMNSLKPEDTAVYYCAARSQIYYRYRSYGYWGQGTQVTVSS”, the “polyreactivity (PSR sort gate)” value is “high polyreactivity”.

With “QVQLVESGGGLVQAGGSLRLSCAASGSIFRYYTMGWYRQAPGKERELVASISRGGNTYYADSVKGRFTISRDNAKNTVYLQMNSLKPEDTAVYYCNVRLSYSYISQSDWNFDYWGQGTQVTVSS”, the “polyreactivity (PSR sort gate)” value is reported as “low polyreactivity”.

On to “QVQLVESGGGLVQAGGSLRLSCAASGSIFRYYVMGWSRQAPGKERELVASISYSVGRTYYADSVKGRFTISRDNAKNTVYLQMNCLKPEDTAVYYCAADRYWPYYSAYYTSYRMDYWGQGTQVTVSS”, for which the “polyreactivity (PSR sort gate)” value is listed as “high polyreactivity”.

For the sequence “QVQLVESGGGLVQAGGSLRLSCAASGSIFSAYAMGWYRQAPGKERELVAAISSRGSRTYYAYSVKGRFTISRDYAKNSVYLQMNSLKPEDTAVYYCAADPFSSYYKMDYWGQGTQVTVSS”, the “polyreactivity (PSR sort gate)” value is “high polyreactivity”.

As for “QVQLVESGGGLVQAGGSLRLSCAASGSIFSAYVMGWYRQAPGKERELVAAINRGGNTYYADSVKGRFTISRDNAKNTVYLQMNSLKPEDTAVYYCNAQWYYLRYRYDYWGQGTQVTVSS”, the “polyreactivity (PSR sort gate)” value was “high polyreactivity”.

For the sequence “QVQLVESGGGLVQAGGSLRLSCAASGSIFSAYVMGWYRQAPGKERELVAAITRSGGSTYYADSVKGRFTISRDNAKNTVYLQMNSLKPEDTAVYYCAVDYLLHYYSYIEDYWGQGTQVTVSS”, the “polyreactivity (PSR sort gate)” value is given as “low polyreactivity”.

On to “QVQLVESGGGLVQAGGSLRLSCAASGSIFSCYTMGWYRQAPGKERELVAASTTYADSVKGRFTISRDNAKNTVYLQMNSLKPEDTAVSYCATRHPARRDYWGQGTQVTVSS”, for which the “polyreactivity (PSR sort gate)” value is reported as “low polyreactivity”.

These data come from the nanobody polyreactivity screen of Harvey et al. (2022).
